Test results as given in US20090104146A1.

Biological target: gp130/OSMRβ receptor complex (type II OSM receptor) on NHEK (human) (UniProt P40189)
Assay: cell-based or functional assay

Chain of gp130/OSMRβ receptor complex (type II OSM receptor) on NHEK (human) (P40189 23-918, chain 1 of 2): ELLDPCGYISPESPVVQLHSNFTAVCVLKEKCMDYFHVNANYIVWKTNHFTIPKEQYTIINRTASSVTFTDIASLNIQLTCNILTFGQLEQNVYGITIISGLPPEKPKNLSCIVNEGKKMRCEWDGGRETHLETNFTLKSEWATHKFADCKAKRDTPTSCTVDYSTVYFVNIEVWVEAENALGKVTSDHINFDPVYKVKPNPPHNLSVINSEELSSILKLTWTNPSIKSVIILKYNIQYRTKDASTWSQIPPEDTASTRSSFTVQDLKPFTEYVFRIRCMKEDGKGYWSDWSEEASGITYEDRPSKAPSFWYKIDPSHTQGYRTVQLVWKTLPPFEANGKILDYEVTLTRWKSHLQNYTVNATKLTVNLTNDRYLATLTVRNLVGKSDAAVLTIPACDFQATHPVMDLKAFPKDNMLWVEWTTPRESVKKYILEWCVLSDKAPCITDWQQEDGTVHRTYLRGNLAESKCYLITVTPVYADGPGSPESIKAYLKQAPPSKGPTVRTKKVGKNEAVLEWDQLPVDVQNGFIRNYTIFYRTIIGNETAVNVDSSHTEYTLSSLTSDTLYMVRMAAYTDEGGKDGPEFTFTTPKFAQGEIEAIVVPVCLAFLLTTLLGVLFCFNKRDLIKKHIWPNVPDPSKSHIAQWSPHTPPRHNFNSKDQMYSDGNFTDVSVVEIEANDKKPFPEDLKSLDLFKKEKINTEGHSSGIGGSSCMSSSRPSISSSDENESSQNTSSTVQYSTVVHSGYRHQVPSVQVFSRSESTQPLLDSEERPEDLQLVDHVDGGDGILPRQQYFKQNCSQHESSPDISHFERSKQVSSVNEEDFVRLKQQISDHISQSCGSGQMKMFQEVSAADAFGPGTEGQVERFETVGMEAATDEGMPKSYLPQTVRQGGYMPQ
Chain of gp130/OSMRβ receptor complex (type II OSM receptor) on NHEK (human) (Q99650 28-979, chain 2 of 2, further chain): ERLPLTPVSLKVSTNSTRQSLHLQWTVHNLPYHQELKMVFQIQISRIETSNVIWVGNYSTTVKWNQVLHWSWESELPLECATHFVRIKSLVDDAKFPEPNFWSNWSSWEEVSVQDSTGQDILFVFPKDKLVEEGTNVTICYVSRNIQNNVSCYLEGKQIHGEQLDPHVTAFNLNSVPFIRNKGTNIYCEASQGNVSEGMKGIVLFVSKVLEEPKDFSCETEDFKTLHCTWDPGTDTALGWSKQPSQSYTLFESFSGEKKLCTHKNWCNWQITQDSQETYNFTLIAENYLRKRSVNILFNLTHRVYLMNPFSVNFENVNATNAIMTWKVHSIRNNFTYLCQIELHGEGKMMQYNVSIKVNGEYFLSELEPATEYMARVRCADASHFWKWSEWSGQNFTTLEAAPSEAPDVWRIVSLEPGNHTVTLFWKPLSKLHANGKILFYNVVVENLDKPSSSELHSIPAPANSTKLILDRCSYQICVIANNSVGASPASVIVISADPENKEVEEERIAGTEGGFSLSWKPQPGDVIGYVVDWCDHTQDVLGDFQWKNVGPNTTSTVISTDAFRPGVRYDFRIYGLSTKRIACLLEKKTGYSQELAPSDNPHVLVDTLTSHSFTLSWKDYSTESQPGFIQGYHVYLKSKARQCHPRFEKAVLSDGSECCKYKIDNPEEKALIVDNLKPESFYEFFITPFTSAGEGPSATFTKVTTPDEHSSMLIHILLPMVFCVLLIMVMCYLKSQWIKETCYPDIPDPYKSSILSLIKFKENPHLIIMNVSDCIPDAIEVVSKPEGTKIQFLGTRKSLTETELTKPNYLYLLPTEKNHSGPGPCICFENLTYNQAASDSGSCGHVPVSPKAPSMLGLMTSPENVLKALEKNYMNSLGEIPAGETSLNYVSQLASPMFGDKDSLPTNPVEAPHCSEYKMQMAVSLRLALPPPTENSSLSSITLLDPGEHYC

- tyrosine phosphorylation of STAT3 in NHEK (Western blot): 3 ng/mL
Substance: Human recombinant oncostatin M (OSM) (from UniProt P13725 26-221) (ligand)
